Measurements: paper doi:10.1101/2022.10.17.512556 (bioRxiv, 2022)
Several values for one entry are separate records, joined by “and”; a condition that tells them apart may be missing. Equal entries are not always repeated. Where two headings read alike, the source gives them in different places.

How the values were obtained:
[1] = target: the molecule itself; assay: cryo-EM structure
[2] = target: the molecule itself; assay: cryo-EM structure; remark: listed apart in the source

B1: S210A DegP (enzyme)
chain: AETSSATTAQQMPSLAPMLEKVMPSVVSINVEGSTTVNTPRMPRNFQQFFGDDSPFCQEGSPFQSSPFCQGGQGGNGGGQQQKFMALGSGVIIDADKGYVVTNNHVVDNATVIKVQLSDGRKFDAKMVGKDPRSDIALIQIQNPKNLTAIKMADSDALRVGDYTVAIGNPFGLGETVTSGIVSALGRSGLNAENYENFIQTDAAINRGNAGGALVNLNGELIGINTAILAPDGGNIGIGFAIPSNMVKNLTSQMVEYGQVKRGELGIMGTELNSELAKAMKVDAQRGAFVSQVLPNSSAAKAGIKAGDVITSLNGKPISSFAALRAQVGTMPVGSKLTLGLLRDGKQVNVNLELQQSSQNQVDSSSIFNGIEGAEMSNKGKDQGVVVNNVKTGTPAAQIGLKKGDVIIGANQQAVKNIAELRKVLDSKPSVLALNIQRGDSTIYLLMQ
stoichiometry N [1]: 30 and 60
stoichiometry N [2]: 18
